The record followed here is paper PMC6992768, “Loss-of-function mutations in UDP-Glucose 6-Dehydrogenase cause recessive developmental epileptic encephalopathy” (Nature Communications, 2020).

This series concerns the molecule itself. Put plainly: SEC; analytical gel filtration of each apoprotein alone; 1x PBS with 1 mM DTT, 0.5 mL/min, Superdex gel filtration column, elution followed by A280; peaks compared with known hexamer, dimer and monomer elution times. For orientation: Size exclusion chromatography separates by hydrodynamic size, large species first.

A word on the stoichiometry N: it is the number of molecules, sites or subunits per partner or assembly.

B1: UGDH A44V (enzyme, human, UniProt O60701 1-494, looked up)
chain: MFEIKKICCIGAGYVGGPTCSVIAHMCPEIRVTVVDVNESRINVWNSPTLPIYEPGLKEVVESCRGKNLFFSTNIDDAIKEADLVFISVNTPTKTYGMGKGRAADLKYIEACARRIVQNSNGYKIVTEKSTVPVRAAESIRRIFDANTKPNLNLQVLSNPEFLAEGTAIKDLKNPDRVLIGGDETPEGQRAVQALCAVYEHWVPREKILTTNTWSSELSKLAANAFLAQRISSINSISALCEATGADVEEVATAIGMDQRIGNKFLKASVGFGGSCFQKDVLNLVYLCEALNLPEVARYWQQVIDMNDYQRRRFASRIIDSLFNTVTDKKIAILGFAFKKDTGDTRESSSIYISKYLMDEGAHLHIYDPKVPREQIVVDLSHPGVSEDDQVSRLVTISKDPYEACDGAHAVVICTEWDMFKELDYERIHKKMLKPAFIFDGRRVLDGLHNELQTIGFQIETIGKKVSSKRIPYAPSGEIPKFSLQDPPNKKPKV
notes: human UDP-glucose 6-dehydrogenase (UGDH) with the patient variant A44V, made from WT-UGDH pET28a; Germline variant found in patients (families 1, 11, 13); Eluted mainly as a dimer by gel filtration; also called p.A44V; p.Ala44Val
As for B1, the “stoichiometry N” value worked out at 2.

B2: UGDH T325D (enzyme, human, UniProt O60701 1-494, looked up)
chain: MFEIKKICCIGAGYVGGPTCSVIAHMCPEIRVTVVDVNESRINAWNSPTLPIYEPGLKEVVESCRGKNLFFSTNIDDAIKEADLVFISVNTPTKTYGMGKGRAADLKYIEACARRIVQNSNGYKIVTEKSTVPVRAAESIRRIFDANTKPNLNLQVLSNPEFLAEGTAIKDLKNPDRVLIGGDETPEGQRAVQALCAVYEHWVPREKILTTNTWSSELSKLAANAFLAQRISSINSISALCEATGADVEEVATAIGMDQRIGNKFLKASVGFGGSCFQKDVLNLVYLCEALNLPEVARYWQQVIDMNDYQRRRFASRIIDSLFNDVTDKKIAILGFAFKKDTGDTRESSSIYISKYLMDEGAHLHIYDPKVPREQIVVDLSHPGVSEDDQVSRLVTISKDPYEACDGAHAVVICTEWDMFKELDYERIHKKMLKPAFIFDGRRVLDGLHNELQTIGFQIETIGKKVSSKRIPYAPSGEIPKFSLQDPPNKKPKV
notes: human UDP-glucose 6-dehydrogenase (UGDH) with T325D, made from WT-UGDH pET28a
Take B2: the binding result is “binds”.

B3: UDP-Glucose 6-Dehydrogenase (UGDH), wild type (enzyme, human, UniProt O60701 1-494, looked up)
chain: MFEIKKICCIGAGYVGGPTCSVIAHMCPEIRVTVVDVNESRINAWNSPTLPIYEPGLKEVVESCRGKNLFFSTNIDDAIKEADLVFISVNTPTKTYGMGKGRAADLKYIEACARRIVQNSNGYKIVTEKSTVPVRAAESIRRIFDANTKPNLNLQVLSNPEFLAEGTAIKDLKNPDRVLIGGDETPEGQRAVQALCAVYEHWVPREKILTTNTWSSELSKLAANAFLAQRISSINSISALCEATGADVEEVATAIGMDQRIGNKFLKASVGFGGSCFQKDVLNLVYLCEALNLPEVARYWQQVIDMNDYQRRRFASRIIDSLFNTVTDKKIAILGFAFKKDTGDTRESSSIYISKYLMDEGAHLHIYDPKVPREQIVVDLSHPGVSEDDQVSRLVTISKDPYEACDGAHAVVICTEWDMFKELDYERIHKKMLKPAFIFDGRRVLDGLHNELQTIGFQIETIGKKVSSKRIPYAPSGEIPKFSLQDPPNKKPKV
notes: human UDP-glucose 6-dehydrogenase (UGDH), codon-optimised E. coli expression construct WT-UGDH pET28a; also called UGDH^WT; WT-UGDH
B3: the binding result is “binds”.

B4: UGDH ∆132 (enzyme, human, UniProt O60701 1-494, looked up)
chain: MFEIKKICCIGAGYVGGPTCSVIAHMCPEIRVTVVDVNESRINAWNSPTLPIYEPGLKEVVESCRGKNLFFSTNIDDAIKEADLVFISVNTPTKTYGMGKGRAADLKYIEACARRIVQNSNGYKIVTEKSTPVRAAESIRRIFDANTKPNLNLQVLSNPEFLAEGTAIKDLKNPDRVLIGGDETPEGQRAVQALCAVYEHWVPREKILTTNTWSSELSKLAANAFLAQRISSINSISALCEATGADVEEVATAIGMDQRIGNKFLKASVGFGGSCFQKDVLNLVYLCEALNLPEVARYWQQVIDMNDYQRRRFASRIIDSLFNTVTDKKIAILGFAFKKDTGDTRESSSIYISKYLMDEGAHLHIYDPKVPREQIVVDLSHPGVSEDDQVSRLVTISKDPYEACDGAHAVVICTEWDMFKELDYERIHKKMLKPAFIFDGRRVLDGLHNELQTIGFQIETIGKKVSSKRIPYAPSGEIPKFSLQDPPNKKPKV
notes: source: purified recombinant; expression not described for this mutant
For the protein B4, the binding result was “binds”.
